Measurements taken from paper PMC8757444 (ACS Omega, 2021).

Target: the molecule itself
Assay: dynamic light scattering

B1: Encapsulin from Thermotoga maritima (natural protein)
chain: MEFLKRSFAPLTEKQWQEIDNRAREIFKTQLYGRKFVDVEGPYGWEYAAHPLGEVEVLSDENEVVKWGLRKSLPLIELRATFTLDLWELDNLERGKPNVDLSSLEETVRKVAEFEDEVIFRGCEKSGVKGLLSFEERKIECGSTPKDLLEAIVRALSIFSKDGIEGPYTLVINTDRWINFLKEEAGHYPLEKRVEECLRGGKIITTPRIEDALVVSERGGDFKLILGQDLSIGYEDREKDAVRLFITETFTFQVVNPEALILLKF
  binding result: binds
